Data taken from patent publication US20100041596A1 (published 2010).

Columns and labels:
[1] = molecular target: T1, TNFα, biotinylated form (human, UniProt P01375 77-233, biotinylated); test: biotinylated TNFα staining normalized to HA staining
T1 construct: also called biotinylated human TNF-α; Bt-TNF-α

[2] = molecular target: T2, p60ΔCD-GFP-HA (UniProt P42212 1-238 = GFP, limits assumed); test: co-immunoprecipitation in 293T transient transfections
T2 construct: GFP introduced in-frame into p60ΔCD-HA; p60 limits deduced as for p60ΔCD-HA; also called chimeric p60 receptor with the cytoplasmic domain replaced by GFP
Procedure: The PCR product was digested with BamHI and EcoRI and cloned into pcDNA3. The PCR fragments containing the receptor fragments were then introduced into this plasmid using the EcoRI and XhoI sites. For the GFP/CFP/YFP chimeras, the fragments were amplified by PCR and introduced in-frame into the XhoI and XbaI sites of p60ΔCD-HA. 293T cells were transfected with Fugene 6 (Boehringer Mannheim) as per manufacturer's protocol. Cells were lysed in 150 mM NaCl, 20 mM Tris.Cl [pH 7.5], 1 mM EDTA, 30 mM NaF, 2 mM β-glycerophosphate, 1 mM sodium orthovanadate, 5 mM iodoacetamide, 2 mM dithiothreitol (DTT), 1% TRITON X-100 and protease inhibitors (Boehringer Mannheim). After pre-clearing with protein G agarose beads (Boehringer Mannheim) and normal mouse IgG, proteins were immunoprecipitated from the lysates with […] anti-GFP and protein G agarose beads. Immune complexes were washed twice with lysis buffer containing 0.5 M NaCl and then three times with regular lysis buffer. Immune-complexes were resolved on Tris/Glycine gels (Novex).

T1 sequence (P01375 77-233 limits assumed): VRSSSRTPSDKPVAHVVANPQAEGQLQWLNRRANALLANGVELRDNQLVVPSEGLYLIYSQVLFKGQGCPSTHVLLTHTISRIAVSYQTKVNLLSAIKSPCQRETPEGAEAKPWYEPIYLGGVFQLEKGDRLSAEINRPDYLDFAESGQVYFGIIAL

B1: p60ΔCD-HA K32A (receptor, not shown: small tags and cut ends)
chain: LVPHLGDREKRDSVCPQGKYIHPQNNSICCTACHKGTYLYNDCPGPGQDTDCRECESGSFTASENHLRHCLSCSKCRKEMGQVEISSCTVDRDTVCGCRKNQYRHYWSENLFQCFNCSLCLNGTVHLSCQEKQNTVCTCHAGFFLRENECVSCSNCKKSLECTKLCLPQIENVKGTEDSGTTVLLPLVIFFGLCLLSLLFIGLMYRYQRWK
notes: Mutant of p60ΔCD-HA; numbers count on mature p60
B1: no binding [1]; no binding [2].
